# Test results reported in the supplement of paper PMC9170038.
# System: MS2 coat protein
# Experiment: apparent KD of MS2 coat protein; designed switch direction (-1 OFF switch, 1 ON switch): -1; higher = weaker reporter binding
# Summary of the method: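 Stalled E. coli RNA polymerase transcribed designed RNA switches on Illumina chips, which were then titrated with SNAP-549-labelled MS2 coat protein, doubling from 0.7 or 1.5 nM to 3 µM. Steps lasted from 0.8–1.5 h at the lowest concentration to 10–20 min at the highest. The apparent KD is each design's median over clusters of curve-fitted normalised fluorescence.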
# [1] = input ligand: microRNA oligo, concentration not stated
# [2] = Eterna round: R95, input ligand: FMN 200 uM
# [3] = Eterna round: R95, input ligand: microRNA oligo, concentration not stated
# [4] = Eterna round: R95, input ligand: none
Sequence,apparent KD of MS2 coat protein (input ligand: FMN 200 uM),apparent KD of MS2 coat protein (input ligand: none),apparent KD of MS2 coat protein [1],apparent KD of MS2 coat protein [2],apparent KD of MS2 coat protein [3],apparent KD of MS2 coat protein [4]
"ACUUUUUGAGGAUAUACAUUGAUUAACAUGAGGAUCACCCAUGUACAAACAUGUAUUUGUGUAGAAGGCAGAAGAA [JR_Ex5_Sub068] (Eterna round: R97, puzzle: Exclusion 5)",14.9 nM,13.2 nM,–,–,–,–
"AGAAACUCAAGAGGAUAUCACAUGAGGAUCACCCAUGUAUAGCGCGCUAUGCUAGUCCUCGUAUUUGAGAAGGUUUGAAAUAAG [Mat - Exclusion NG 2 - Mod of JL - D79] (Eterna round: R96, puzzle: Exclusion NG 2)",29.8 nM,18.3 nM,12.5 nM,–,–,–
"AGAAAUGCCCAUGGCCGCAAGCCUUUUGCUUGUCUUACCACAUGAGGAUCACCCAUGUGACAUGGGCUCCUUAUAAU [Verileve] (puzzle: Sensor v3, turn-off variant 2)",–,–,–,14 nM,9.2 nM,12.5 nM
"AGAAGUAGAAACCGAUCCUACAUGAGGAUCACCCAUGUAGCAAGACGUGCACGCGAAGCUCGUCAGACUACCAGAAA [salish99_TOv1_r3_005] (puzzle: Sensor v3, turn-off variant 1)",–,–,–,159 nM,223 nM,337 nM
"AGAAGUAGAAACCGAUCCUACAUGAGGAUCACCCAUGUAGCAAGACGUGCACGCGAAGCUCGUCAGACUACCAGAAG [salish99_TOv1_r3_001] (puzzle: Sensor v3, turn-off variant 1)",–,–,–,379 nM,821 nM,685 nM
"AGAAGUAGAAACCGAUCCUACAUGAGGAUCACCCAUGUAGCAAGACGUGCACGCGAAGCUCGUCAGACUACCAGAAG [solution 24] (Eterna round: R96, puzzle: Sensor v2, turn-off variant)",462 nM,345 nM,288 nM,–,–,–
"AGAAGUAGUAACCGAUCCUACAUGAGGAUCACCCAUGUAGCCAGACGUGCACGCGAAGCUCGUCAGACUACCAGAUG [salish99_TOv1_r3_026] (puzzle: Sensor v3, turn-off variant 1)",–,–,–,618 nM,447 nM,398 nM
"AGAAGUAGUAGCCGAUCCUACAUGAGGAUCACCCAUGUAGCUAGACGUGCACGCGAUGCUCGUCAGACUACCAGAUG [salish99_TOv1_r3_031] (puzzle: Sensor v3, turn-off variant 1)",–,–,–,131 nM,120 nM,155 nM
AGACAGUCAGGAUAUACAUGAGGAUCACCCAUGUUGAGAUGAGAAAGGGCAGGAAGAGGUAGAAGGGACAAGAA [JR_Exclu3_Sub035] (puzzle: Exclusion 3),–,–,–,28.3 nM,19.2 nM,24.8 nM
"AGACGGAGAAAAGGAUAUGAGACACUAGACGUCUCAGAAGGUUUAGCCAGUAGCUCCAACAUGAGGAUCACCCAUGUGGUCGUA [Eternabot solution 41] (Eterna round: R96, puzzle: Exclusion NG 1)",50 nM,184 nM,108 nM,–,–,–
AGAGCACAUGAGGAUCACCCAUGUCAGGAUAUGCAAGAAAGAAAGAAAGAAAGAAAGAGCAGAAGGGACAAAUA [?solved?] (puzzle: Exclusion 1),–,–,–,34.9 nM,34.2 nM,43.2 nM
"AGAGCCGUUGUAGGAUAUGCCCUCGGGUGAUGCCGGUCGCCACAUGAGGAUCACCCAUGUAGCGGGCAGAAGGGCAAACUCAGU [Eternabot solution 43] (Eterna round: R96, puzzle: Exclusion NG 2)",26.6 nM,18.5 nM,13.4 nM,–,–,–
"AGAGUAAUGCGAGGAUAUACAUGAGGAUCACCCAUGUGGUGGUGUGAGGCAAAGCCUCACACCAUGUAGAAGGCGCAUUACUCA [Mat - Exclusion NG 2 - Mod of JL - D21] (Eterna round: R96, puzzle: Exclusion NG 2)",155 nM,39.3 nM,35.2 nM,–,–,–
"AGAGUGCUGCGAGGAUAUACAUGAGGAUCACCCAUGUUUACCUGUGAGGCAAAGCCUCACAGGUAGUAGAAGGCGCAGUACUCA [Mat - Exclusion NG 2 - Mod of JL - D43] (Eterna round: R96, puzzle: Exclusion NG 2)",14.6 nM,12.3 nM,14.3 nM,–,–,–
